Data from article PMC6194124, “Mannosidase activity of EDEM1 and EDEM2 depends on an unfolded state of their glycoprotein substrates” (Communications Biology, 2018).

Target: T1, EDEM1-HA (UniProt Q925U4 1-652)
T1 construct: source: HEK 293, transiently transfected (pCMVsport2), in lysate
T1 sequence (looked up): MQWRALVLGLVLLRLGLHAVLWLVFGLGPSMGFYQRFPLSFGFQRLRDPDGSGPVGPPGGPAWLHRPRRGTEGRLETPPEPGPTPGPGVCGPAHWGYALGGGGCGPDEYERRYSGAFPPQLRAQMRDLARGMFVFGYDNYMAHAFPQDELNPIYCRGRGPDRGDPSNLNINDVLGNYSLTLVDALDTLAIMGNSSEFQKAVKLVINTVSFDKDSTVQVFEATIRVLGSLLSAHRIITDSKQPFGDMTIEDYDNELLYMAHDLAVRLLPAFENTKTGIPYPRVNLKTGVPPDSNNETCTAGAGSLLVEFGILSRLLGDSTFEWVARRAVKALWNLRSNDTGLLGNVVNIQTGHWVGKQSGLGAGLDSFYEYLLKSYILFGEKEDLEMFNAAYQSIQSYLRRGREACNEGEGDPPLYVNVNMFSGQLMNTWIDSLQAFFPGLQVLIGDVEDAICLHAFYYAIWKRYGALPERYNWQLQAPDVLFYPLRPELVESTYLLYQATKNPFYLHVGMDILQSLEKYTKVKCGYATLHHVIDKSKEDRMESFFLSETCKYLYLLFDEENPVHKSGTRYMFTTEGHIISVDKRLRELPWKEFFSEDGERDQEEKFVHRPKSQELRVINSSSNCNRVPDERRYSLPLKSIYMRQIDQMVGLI
Assay: co-IP; HEK 293 cells expressing EDEM1-HA or EDEM2-HA with FLAG-TXNDC11 or FLAG-PDI; lysed in mild conditions (1% NP-40, 50 mM Tris/HCl pH 8, 150 mM NaCl); immunoprecipitated with anti-EDEM1 or anti-EDEM2, immunoblotted with anti-FLAG
Settings: partners not purified

fold weaker coIP than with TXNDC11: ~15 fold
B1: FLAG-PDI (enzyme)
chain: not shown
notes: mammalian protein disulfide isomerase (PDI); vector a gift from E. Avezov; also called protein disulfide isomerase; source: HEK 293, transiently transfected, in lysate
